What was measured:
Test in all cases: cell-based or functional assay
[1] = target: human Kv1.2 potassium channel (α-subunit) (human) (UniProt P16389)
[2] = target: human Kv1.6 potassium channel (α-subunit) (human) (UniProt P17658)
[3] = target: human Kv1.3 potassium channel (potassium voltage-gated channel subfamily A member 3, α-subunit) (human) (UniProt P22001)
[4] = target: human Kv1.1 potassium channel (α-subunit) (human) (UniProt Q09470)
Chain of human Kv1.1 potassium channel (α-subunit) (human) (Q09470 whole entry): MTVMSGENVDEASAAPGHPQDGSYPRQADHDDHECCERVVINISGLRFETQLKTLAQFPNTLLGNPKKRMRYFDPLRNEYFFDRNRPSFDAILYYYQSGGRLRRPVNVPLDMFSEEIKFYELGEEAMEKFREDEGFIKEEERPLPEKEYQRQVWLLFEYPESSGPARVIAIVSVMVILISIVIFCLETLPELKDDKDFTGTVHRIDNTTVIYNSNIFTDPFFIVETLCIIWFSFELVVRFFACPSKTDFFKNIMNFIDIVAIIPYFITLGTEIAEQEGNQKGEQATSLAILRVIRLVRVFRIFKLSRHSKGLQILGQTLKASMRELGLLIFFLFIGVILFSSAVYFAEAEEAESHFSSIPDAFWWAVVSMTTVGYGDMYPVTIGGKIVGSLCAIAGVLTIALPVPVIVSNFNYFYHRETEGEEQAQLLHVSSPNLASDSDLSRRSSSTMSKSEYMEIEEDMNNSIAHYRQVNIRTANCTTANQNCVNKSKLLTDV

Chain of human Kv1.6 potassium channel (α-subunit) (human) (P17658 whole entry): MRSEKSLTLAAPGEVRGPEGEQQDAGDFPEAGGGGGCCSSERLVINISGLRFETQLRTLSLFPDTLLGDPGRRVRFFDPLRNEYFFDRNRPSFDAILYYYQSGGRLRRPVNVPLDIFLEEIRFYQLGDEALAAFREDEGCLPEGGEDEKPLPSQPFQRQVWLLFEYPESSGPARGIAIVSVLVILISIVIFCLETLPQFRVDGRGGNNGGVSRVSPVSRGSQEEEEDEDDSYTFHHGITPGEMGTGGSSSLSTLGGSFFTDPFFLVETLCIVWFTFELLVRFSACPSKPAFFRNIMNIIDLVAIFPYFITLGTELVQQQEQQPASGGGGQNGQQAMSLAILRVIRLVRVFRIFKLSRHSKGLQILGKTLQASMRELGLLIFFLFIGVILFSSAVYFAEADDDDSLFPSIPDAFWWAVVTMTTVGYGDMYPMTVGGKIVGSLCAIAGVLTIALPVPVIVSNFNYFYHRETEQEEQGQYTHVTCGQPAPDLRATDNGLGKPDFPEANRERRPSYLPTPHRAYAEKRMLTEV
Chain of human Kv1.2 potassium channel (α-subunit) (human) (P16389 whole entry): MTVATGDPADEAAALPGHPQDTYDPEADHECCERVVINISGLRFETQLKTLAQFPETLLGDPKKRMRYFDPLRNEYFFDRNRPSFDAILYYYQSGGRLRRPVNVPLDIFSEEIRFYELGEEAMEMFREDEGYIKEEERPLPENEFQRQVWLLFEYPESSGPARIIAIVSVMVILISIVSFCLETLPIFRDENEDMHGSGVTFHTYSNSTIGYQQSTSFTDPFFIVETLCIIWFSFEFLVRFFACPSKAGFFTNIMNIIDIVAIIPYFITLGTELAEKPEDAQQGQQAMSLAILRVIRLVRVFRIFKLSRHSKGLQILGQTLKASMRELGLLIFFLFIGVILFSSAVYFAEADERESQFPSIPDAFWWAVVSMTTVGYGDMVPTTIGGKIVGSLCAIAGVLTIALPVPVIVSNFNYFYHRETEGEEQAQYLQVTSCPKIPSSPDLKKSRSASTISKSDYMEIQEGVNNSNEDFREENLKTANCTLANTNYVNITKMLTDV
Chain of human Kv1.3 potassium channel (potassium voltage-gated channel subfamily A member 3, α-subunit) (human) (P22001 whole entry): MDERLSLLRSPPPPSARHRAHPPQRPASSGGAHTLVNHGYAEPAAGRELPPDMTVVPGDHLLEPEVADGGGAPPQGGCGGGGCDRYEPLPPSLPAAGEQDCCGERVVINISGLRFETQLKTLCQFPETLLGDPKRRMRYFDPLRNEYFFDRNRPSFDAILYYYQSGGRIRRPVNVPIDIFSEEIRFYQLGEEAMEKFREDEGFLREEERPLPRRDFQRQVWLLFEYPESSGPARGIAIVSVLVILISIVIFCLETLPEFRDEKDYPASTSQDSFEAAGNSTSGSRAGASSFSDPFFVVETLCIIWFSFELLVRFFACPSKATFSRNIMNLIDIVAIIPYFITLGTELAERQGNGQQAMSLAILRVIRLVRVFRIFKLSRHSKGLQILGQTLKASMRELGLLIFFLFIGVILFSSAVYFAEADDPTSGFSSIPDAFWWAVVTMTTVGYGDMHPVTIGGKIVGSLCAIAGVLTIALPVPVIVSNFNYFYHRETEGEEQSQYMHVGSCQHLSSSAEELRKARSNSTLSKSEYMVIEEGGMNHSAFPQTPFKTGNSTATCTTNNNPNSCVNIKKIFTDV

Substance	Potency IC50 (patch clamp) [1] [nM]	Potency IC50 (patch clamp) [2] [nM]	Potency IC50 (patch clamp) [3] [nM]	Selectivity Kv1.2/Kv1.3 [1]	Selectivity Kv1.6/Kv1.3 [2]	Potency IC50 (patch clamp) [4] [nM]	Selectivity Kv1.1/Kv1.3 [4]
ShK (peptide)	11	0.19	0.017	–	–	–	–
Moka1 (peptide)	275	> 3000	9	31	> 300	> 3000	> 300
Vm24 (peptide)	4.7	21	0.15	31	139	0.097	0.65
